Test results published in PMC10204179.

Biological target: protein G_1
Assay: SEC-MALS

- stoichiometry N: 2
Substance: protein G_1
